Measurements published in patent US20150166988A1 (Bicycle, published 2015).
Where two headings read alike, the source gives them in different places. *1 amine or outer side, *2 acyl side, *3 side chain or, on linkers, in order; H or OH if unused. Bridges are numbered along the chain shown (N, C = ends). TBMB = c1c(C[*:1])cc(C[*:3])cc1C[*:2]

B1: TBMB modified peptide PK15 hydrolysed in one binding loop by human plasma kallikrein (peptide)
peptide: H-ACSDRFRNCPADEALCG-NH2
modifications: linker 2-9-16 via TBMB; also: one peptide bond in a loop hydrolysed, position not given here
B2: TBMB modified synthetic peptide PK2 (bi-cyclic peptide) (peptide)
peptide: H-ACSDRFRNCPLWSGTCG-NH2
modifications: linker 2-9-16 via TBMB
SMILES: CC(C)C[C@@H]1NC(=O)[C@@H]2CCCN2C(=O)[C@@H]2CSCc3cc(cc(c3)CSC[C@@H](C(=O)NCC(N)=O)NC(=O)[C@H]([C@@H](C)O)NC(=O)CNC(=O)[C@H](CO)NC(=O)[C@H](Cc3c[nH]c4ccccc34)NC1=O)CSC[C@H](NC(=O)[C@H](C)N)C(=O)N[C@@H](CO)C(=O)N[C@@H](CC(=O)O)C(=O)N[C@@H](CCCNC(=N)N)C(=O)N[C@@H](Cc1ccccc1)C(=O)N[C@@H](CCCNC(=N)N)C(=O)N[C@@H](CC(N)=O)C(=O)N2
B3: TBMB modified peptide PK15 (bi-cyclic peptide) (peptide)
peptide: H-ACSDRFRNCPADEALCG-NH2
modifications: linker 2-9-16 via TBMB
notes: Chemically synthesized 17-mer reacted with TBMB; also called conjugate PK15; peptide conjugate PK15
B4: TBMB modified synthetic peptide PK4 (bi-cyclic peptide) (peptide)
peptide: H-ACSTERRYCPIEIFPCG-NH2
modifications: linker 2-9-16 via TBMB
SMILES: CC[C@H](C)[C@@H]1NC(=O)[C@H](CCC(=O)O)NC(=O)[C@H]([C@@H](C)CC)NC(=O)[C@@H]2CCCN2C(=O)[C@@H]2CSCc3cc(cc(c3)CSC[C@@H](C(=O)NCC(N)=O)NC(=O)[C@@H]3CCCN3C(=O)[C@H](Cc3ccccc3)NC1=O)CSC[C@H](NC(=O)[C@H](C)N)C(=O)N[C@@H](CO)C(=O)N[C@@H]([C@@H](C)O)C(=O)N[C@@H](CCC(=O)O)C(=O)N[C@@H](CCCNC(=N)N)C(=O)N[C@@H](CCCNC(=N)N)C(=O)N[C@@H](Cc1ccc(O)cc1)C(=O)N2

How the values were obtained:
[1] = target: T1, human plasma kallikrein (activated with factor XIIa) (human, UniProt P03952 20-638); experiment: cell-based or functional assay
[2] = target: T1, human plasma kallikrein (activated with …); experiment: cell-based or functional assay; remark: listed apart in the source
[3] = target: T1, human plasma kallikrein (activated with …); experiment: cell-based or functional assay; remark: listed apart in the source
human thrombin = human thrombin (human, UniProt P00734 328-622); experiment: cell-based or functional assay
human factor XIa = human factor XIa (human, UniProt P03951 19-625); experiment: cell-based or functional assay
[4] = target: recombinant mouse plasma kallikrein (activated with thermolysin) (mouse, UniProt P26262 20-638); experiment: cell-based or functional assay
[5] = target: T1, human plasma kallikrein (activated with …); experiment: apparent Ki calculated from the enzyme inhibition IC50 (fluorogenic substrate Z-Phe-Arg-AMC) with the Cheng and Prusoff equation

T1 sequence (P03952 20-638 limits assumed): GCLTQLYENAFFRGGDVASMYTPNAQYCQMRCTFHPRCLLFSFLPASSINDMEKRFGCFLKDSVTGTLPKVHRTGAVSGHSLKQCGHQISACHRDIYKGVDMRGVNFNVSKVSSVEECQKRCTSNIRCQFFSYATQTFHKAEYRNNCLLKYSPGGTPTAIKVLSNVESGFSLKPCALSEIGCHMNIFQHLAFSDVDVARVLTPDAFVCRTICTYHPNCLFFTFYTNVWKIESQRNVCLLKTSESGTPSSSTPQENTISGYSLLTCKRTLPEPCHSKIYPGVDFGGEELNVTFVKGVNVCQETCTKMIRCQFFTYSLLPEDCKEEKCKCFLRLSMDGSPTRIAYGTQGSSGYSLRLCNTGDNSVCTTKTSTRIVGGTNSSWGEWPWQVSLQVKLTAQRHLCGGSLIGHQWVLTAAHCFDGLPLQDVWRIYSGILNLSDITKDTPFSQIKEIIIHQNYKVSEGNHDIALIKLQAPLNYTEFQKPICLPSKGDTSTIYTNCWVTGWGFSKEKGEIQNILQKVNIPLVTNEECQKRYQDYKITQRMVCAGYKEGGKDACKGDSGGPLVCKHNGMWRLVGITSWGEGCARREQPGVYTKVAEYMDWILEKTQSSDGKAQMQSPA
recombinant mouse plasma kallikrein (activated with thermolysin), sequence (P26262 20-638 limits assumed): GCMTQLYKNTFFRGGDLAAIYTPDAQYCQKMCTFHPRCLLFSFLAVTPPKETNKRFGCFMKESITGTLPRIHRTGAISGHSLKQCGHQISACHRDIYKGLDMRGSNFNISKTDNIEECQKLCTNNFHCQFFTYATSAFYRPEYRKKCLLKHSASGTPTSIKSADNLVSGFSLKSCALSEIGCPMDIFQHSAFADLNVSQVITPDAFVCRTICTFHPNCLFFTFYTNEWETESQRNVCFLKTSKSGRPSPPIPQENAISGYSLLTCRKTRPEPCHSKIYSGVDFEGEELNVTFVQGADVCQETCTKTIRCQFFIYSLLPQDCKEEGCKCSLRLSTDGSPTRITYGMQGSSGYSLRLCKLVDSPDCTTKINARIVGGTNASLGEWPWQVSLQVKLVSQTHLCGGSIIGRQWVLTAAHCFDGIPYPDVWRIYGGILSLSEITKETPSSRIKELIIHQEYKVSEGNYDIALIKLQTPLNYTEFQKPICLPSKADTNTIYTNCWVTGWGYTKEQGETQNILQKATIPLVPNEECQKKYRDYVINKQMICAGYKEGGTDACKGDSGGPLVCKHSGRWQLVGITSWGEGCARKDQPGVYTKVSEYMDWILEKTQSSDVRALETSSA

| Binder | IC50 (nM), residual enzyme activity [1] | IC50 (nM), residual enzyme activity [2] | IC50, residual enzyme activity [3] | inhibitory activity (residual enzyme activity) (human thrombin) | inhibitory activity (residual enzyme activity) (human factor XIa) | inhibitory activity (residual enzyme activity) [4] | Ki [5] |
| --- | --- | --- | --- | --- | --- | --- | --- |
| H-ACSDRFRNCPLWSGTCG-NH2 (cysteine pairing not given here) [linear synthetic peptide PK2 (not TBMB modified)] | > 10000 nM | > 10000 nM | – | – | – | – | – |
| B1 | – | – | 2.2 nM | – | – | – | – |
| B2 | 28.6 nM | 28.6 nM | – | > 10 µM | > 10 µM | > 10 µM | – |
| H-ACSDRFRNCPADEALCG-NH2 (cysteine pairing not given here) [linear synthetic peptide PK15 (not TBMB modified)] | > 10000 nM | > 10000 nM | – | – | – | – | – |
| B3 | 1.7 nM | 1.7 nM | 1.6 nM | – | – | – | 1.5 nM |
| H-ACSTERRYCPIEIFPCG-NH2 (cysteine pairing not given here) [linear synthetic peptide PK4 (not TBMB modified)] | 7180 nM | 7180 nM | – | – | – | – | – |
| B4 | 33 nM | 33 nM | – | > 10 µM | > 10 µM | > 10 µM | – |
